Our source for the protein stability index values is the supplement of paper PMC10724198.

± gives the standard deviation of the averaged measurements.
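Further: PSI is a weighted mean of sequencing reads over stability bins, variants kept only with over 10 reads, mCherry proximal and sfGFP distal, peptide attached via GGGS linker.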

The subject of this data set is Saccharomyces cerevisiae. In words: protein stability index of tFT-peptide fusion (C-terminal peptide) (PSI (0-1 scale)); higher = more stable (slower turnover). The settings on record: genetic background: wild type; temperature: 30 C.
As to QHIKNARKKKGE, the protein stability index stood at 0.657 ± 0.0073.
For the sequence QIEQQKHKQPLI, the protein stability index was determined as 0.6859 ± 0.0024.
Sequence QIPEYGGQGVNV yielded a protein stability index of 0.6935 ± 0.0047.
Next, QIYKISKKKKQK: 0.676 ± 0.055; QIYRMKNRYNKS: 0.7 ± 0.038.
To QKATRHRTRPRR belongs 0.688 ± 0.12.
Turning to QKEGGRENETRT, the protein stability index was 0.6906 ± 0.0053.
To QKHGARISSQKK belongs 0.703 ± 0.012.
In turn, QKKIKKPKSKKH showed a protein stability index of 0.736 ± 0.031.
To QKKKKTTVKKRQ belongs 0.671 ± 0.021; to QKKPEMLNKKSY, 0.639 ± 0.015.
With QKKQKIKYRSKN, the protein stability index came to 0.714 ± 0.053.
As to QKNKKKKQKKEK, the protein stability index amounted to 0.717 ± 0.05.
Consider QKPVQGICQEAN, for which the protein stability index was found to be 0.628 ± 0.035.
QKTSPWRQRGRL: the protein stability index worked out at 0.778 ± 0.047.
In the case of QLDPLRPASEFA, the protein stability index turned out to be 0.602 ± 0.043.
QLILVGYCMLSV displayed a protein stability index of 0.5612 ± 0.0017.
The sequence QLLCMSEPFVRE came in with a protein stability index of 0.699 ± 0.057.
To QNEKSKQCIKQT belongs 0.6759 ± 0.0019.
Turning to QNKTKDQKQRRQ, the protein stability index stood at 0.697 ± 0.028.
Next, QNNTRQQRKTPR: 0.683 ± 0.022; QNSDDFLITDTY: 0.643 ± 0.1; QPGGTHDLGGTG: 0.61 ± 0.012.
Next, QPGPKTTYLEEA: 0.686 ± 0.014; QPPLPTRLNHRQ: 0.651 ± 0.045.
As to QPQRSRLRQQNT, the protein stability index worked out at 0.734 ± 0.081.
Sequence QPRVSTSGHSAR had a protein stability index of 0.722 ± 0.016.
For the sequence QPYHSSPSPRTI, the protein stability index came out at 0.717 ± 0.073.
QQCVTGKSFYGI came in with a protein stability index of 0.856 ± 0.14.
As to QQLPPARLPRRP, the protein stability index is 0.745 ± 0.012.
Next, QRFVKIRGLEKI: 0.693 ± 0.026.
As to QRGCEAKRGGEG, the protein stability index came out at 0.628 ± 0.014.
To QRSQASIPGQEV belongs 0.579 ± 0.091; to QSAPPPLPPRRR, 0.69 ± 0.03; to QSARMRRKSNLP, 0.674 ± 0.028.
For QSLITVETRIGS, the protein stability index is 0.651 ± 0.045.
As for QSPATIPFASHR, the protein stability index was determined as 0.731 ± 0.014.
Next, QSPRRQLEGKLE: 0.619 ± 0.046.
Next, QTDHINKTTAKI: 0.684 ± 0.021; QTGQVSRVSPHD: 0.672 ± 0.031; QTHRFLHVGKSL: 0.621 ± 0.043.
Sequence QTLNTKEKREKE had a protein stability index of 0.727 ± 0.025.
In turn, QTYNKRKGAIRA showed a protein stability index of 0.616 ± 0.016.
Regarding QVLFTPLLNVTK, the protein stability index came out at 0.754 ± 0.05.
To QVTLPHSSLLGW belongs 0.6749 ± 0.0028; to QVWLEKDPQETA, 0.691 ± 0.016.
For QYFRKRVLKELP, the protein stability index amounted to 0.671 ± 0.074.
In the case of QYGVSIRRDSRP, the protein stability index came to 0.642 ± 0.035.
Regarding RADAPPPTRPEA, the protein stability index is 0.744 ± 0.011.
For RAGSLRFRVILY, the protein stability index is 0.635 ± 0.026.
With RAHWGEFGYSLF, the protein stability index amounted to 0.716 ± 0.018.
Regarding RAILTVVRGHLE, the protein stability index came out at 0.668 ± 0.0086.
RAITPRHKRLVG registered a protein stability index of 0.6934 ± 0.0031.
RAKCELVHGLRT yielded a protein stability index of 0.65 ± 0.026.
Consider RAKGGFDPKCYS, for which the protein stability index amounted to 0.749 ± 0.076.
Next, RAKSTFRVHSHM: 0.6645 ± 0.005; RAKVEQTGQKTV: 0.707 ± 0.011; RALLSPFYRFYV: 0.5956 ± 0.003.
Next, RALNRVWLSRRV: 0.607 ± 0.02; RALSLLSLLLNR: 0.696 ± 0.022.
To RAMLWGPCYRGI belongs 0.656 ± 0.021; to RAPFLSRACCSR, 0.648 ± 0.013.
Sequence RAPPPPARPALP displayed a protein stability index of 0.687 ± 0.028.
RARAIGVGAGRG gave a protein stability index of 0.691 ± 0.019.
To RARPGRACPGAP belongs 0.755 ± 0.0097.
For RARVGGRQLRRV, the protein stability index was 0.753 ± 0.15.
RARVVRRWDTCG returned a protein stability index of 0.697 ± 0.086.
RASTRGIMISKS displayed a protein stability index of 0.706 ± 0.034.
To RATLGVSGRCWV belongs 0.6802 ± 0.001; to RAVHSSPHVSLS, 0.681 ± 0.013; to RAVKLHIIIFDG, 0.551 ± 0.025.
The sequence RAVSGSLSFLLR registered a protein stability index of 0.721 ± 0.014.
Turning to RAWELPRLRGRD, the protein stability index came out at 0.743 ± 0.076.
The sequence RAWHFWVCGWRV gave a protein stability index of 0.607 ± 0.041.
On to RCAGCFDSAFSW, for which the protein stability index was found to be 0.746 ± 0.012.
The sequence RCFSLFYIYCPA showed a protein stability index of 0.525 ± 0.0065.
To RCGVAGVVCGSG belongs 0.615 ± 0.039; to RCKCGDALTVIH, 0.691 ± 0.016; to RCLGDLLARQTP, 0.635 ± 0.012.
For RCLRALGLFARS, the protein stability index was 0.719 ± 0.008.
As for RCLSISTSLCKV, the protein stability index stood at 0.744 ± 0.052.
To RCPQHCDLSVYV belongs 0.681 ± 0.021; to RCSAPWFSPYPP, 0.645 ± 0.073; to RCSLGWKRFDWR, 0.706 ± 0.061.
In the case of RCTNSLPSYLSH, the protein stability index was found to be 0.675 ± 0.039.
The sequence RDCPVTPGTLFS had a protein stability index of 0.744 ± 0.084.
Take RDGGSTDGGKRR: the protein stability index is 0.697 ± 0.024.
Next, RDNKIKEGKKKK: 0.682 ± 0.1; RDSERTSGAMLS: 0.689 ± 0.031.
In the case of REGRRSVWGVSW, the protein stability index was 0.685 ± 0.023.
Regarding REHLSERVPSRA, the protein stability index is 0.749 ± 0.057.
As for REKLINEKRIRR, the protein stability index is 0.704 ± 0.012.
Next, RELGAWSFITSV: 0.705 ± 0.014; RESIEGGGAPRD: 0.747 ± 0.11.
REVRRNINKRRE gave a protein stability index of 0.67 ± 0.11.
Consider REVYLFSSSCRG, for which the protein stability index is 0.623 ± 0.027.
Sequence REWDRRGRSHHF gave a protein stability index of 0.769 ± 0.069.
With REWVAGGGVVGV, the protein stability index was found to be 0.679 ± 0.031.
For RFFSGPCCGRSP, the protein stability index came out at 0.6995 ± 0.002.
To RFGDWALGARVG belongs 0.72 ± 0.032; to RFGGGPCRSVGC, 0.7331 ± 0.0059; to RFGRGAGWGLGG, 0.66 ± 0.0092.
RFLLNPPLRCPP yielded a protein stability index of 0.747 ± 0.041.
RFPLTPSPLRAT showed a protein stability index of 0.6948 ± 0.0039.
Sequence RFPRFVVPTRTR gave a protein stability index of 0.852 ± 0.058.
RFRVKSYLYFCP came in with a protein stability index of 0.614 ± 0.03.
As for RFSDGSHLFGDR, the protein stability index worked out at 0.524 ± 0.14.
Consider RFSTRAVRLGPC, for which the protein stability index came out at 0.705 ± 0.19.
For RFTNHPTRQTTG, the protein stability index amounted to 0.676 ± 0.088.
The sequence RFVCVSVCPVRV gave a protein stability index of 0.487 ± 0.065.
In the case of RFWFWWVVRDGS, the protein stability index was found to be 0.617 ± 0.08.
Regarding RGCAPDRIPAPV, the protein stability index is 0.645 ± 0.023.
The sequence RGEERGGTRPAG came in with a protein stability index of 0.6788 ± 0.0037.
RGEPPSAKEIAR had a protein stability index of 0.727 ± 0.045.
RGEVSGRVGRVG showed a protein stability index of 0.684 ± 0.058.
RGFRPLGSGILI registered a protein stability index of 0.689 ± 0.051.
